According to publication PMC5298718:

Molecular target: NRP1-PerCP-Cy5.5 (carrier free recombinant neuropilin-1 coupled to PerCP-Cy5.5) (UniProt O14786)
Assay: FRET or BRET; Scheme 3: VEGF (22.4 nM or 11.2 nM, diluted in PBS) incubated simultaneously in solution with the donor (RLuc8-Ra02 or RLuc8-4xGly-Ra02, cleared HEK293 lysate) and the acceptor NRP1-PerCP-Cy5.5, both in excess; n-CLZ in BRET assay buffer; BRET ratio magenta filter/blue filter, against a no-VEGF control

Sequence of UniProt O14786 (O14786 22-856): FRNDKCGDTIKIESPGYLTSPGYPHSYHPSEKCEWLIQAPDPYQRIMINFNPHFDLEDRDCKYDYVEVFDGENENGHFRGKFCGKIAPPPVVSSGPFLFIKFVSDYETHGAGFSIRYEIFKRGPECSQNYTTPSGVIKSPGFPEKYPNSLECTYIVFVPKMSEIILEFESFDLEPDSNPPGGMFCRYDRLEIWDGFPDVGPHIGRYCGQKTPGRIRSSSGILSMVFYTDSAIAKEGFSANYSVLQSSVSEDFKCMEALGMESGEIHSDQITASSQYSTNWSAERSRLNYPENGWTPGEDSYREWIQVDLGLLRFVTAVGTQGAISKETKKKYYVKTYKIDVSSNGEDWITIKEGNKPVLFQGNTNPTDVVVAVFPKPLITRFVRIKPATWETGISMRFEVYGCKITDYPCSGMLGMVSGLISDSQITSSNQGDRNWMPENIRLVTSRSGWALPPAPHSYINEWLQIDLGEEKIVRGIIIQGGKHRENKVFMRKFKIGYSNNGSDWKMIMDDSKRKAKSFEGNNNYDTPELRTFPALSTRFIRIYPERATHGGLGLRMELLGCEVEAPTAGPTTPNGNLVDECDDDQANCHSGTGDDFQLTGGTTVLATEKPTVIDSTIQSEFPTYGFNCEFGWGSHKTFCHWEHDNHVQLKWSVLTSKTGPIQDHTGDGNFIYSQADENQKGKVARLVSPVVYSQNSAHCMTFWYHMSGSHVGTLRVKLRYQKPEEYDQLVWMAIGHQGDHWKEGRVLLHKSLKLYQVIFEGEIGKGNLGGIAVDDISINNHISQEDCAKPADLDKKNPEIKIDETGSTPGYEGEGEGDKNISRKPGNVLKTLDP

## vascular endothelial growth factor (rhVEGF165) (ligand)
  BRET ratio (donor RLuc8-4xGly-Ra02, 11.2 nM VEGF): 114 mBU
  BRET ratio (donor RLuc8-4xGly-Ra02, 22.4 nM VEGF): 119 mBU
  BRET ratio (donor RLuc8-Ra02, 11.2 nM VEGF): 110 mBU
  BRET ratio (donor RLuc8-Ra02, 22.4 nM VEGF): 115 mBU
